We go through one molecule from article PMC5458386, “Crystal structures of human Fabs targeting the Bexsero meningococcal vaccine antigen NHBA” (Acta Crystallographica. Section F, Structural Biology …, 2017).

The experiment addresses T1, Neisserial heparin-binding antigen (NHBA) peptide 20 (Neisseria meningitidis strain 2996, UniProt Q9JPP1 18-427).
T1 construct: NHBA variant p20 (short variant) of N. meningitidis strain 2996, UniProt Q9JPP1; also called NHBA p20; NHBAp20
T1 sequence: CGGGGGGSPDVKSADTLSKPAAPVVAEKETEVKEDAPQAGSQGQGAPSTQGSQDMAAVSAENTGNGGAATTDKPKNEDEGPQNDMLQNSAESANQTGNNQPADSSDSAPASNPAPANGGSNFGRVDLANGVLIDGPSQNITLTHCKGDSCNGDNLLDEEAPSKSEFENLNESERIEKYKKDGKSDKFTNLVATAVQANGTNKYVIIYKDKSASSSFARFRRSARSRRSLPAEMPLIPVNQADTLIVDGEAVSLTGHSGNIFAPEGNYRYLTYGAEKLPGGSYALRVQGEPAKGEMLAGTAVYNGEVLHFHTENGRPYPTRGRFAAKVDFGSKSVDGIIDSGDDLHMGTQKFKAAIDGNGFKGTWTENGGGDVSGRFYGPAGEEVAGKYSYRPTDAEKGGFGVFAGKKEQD
As to the kind of experiment: SPR; Biacore T200, 25 °C; Fab (800-1100 RU) captured by anti-Fab mAbs (Human Fab Capture Kit) on a CM5 chip; NHBA injected, single-cycle kinetics, five injections 6.25-100 nM, 30 µl/min; HBS-EP (10 mM HEPES, 150 mM NaCl, 3 mM EDTA, 0.05% P20, pH 7.4); 1:1 Langmuir model with mass-transfer term; duplicate. The following applies: both partners purified.

B1: Fab 12E1 (Fab, V domains shown)
VH: QVQLVQSGAEVKKPGASVKVSCKASGYIFTSHPIHWVRQAPGQRPEWMGWINAGNGNTKYSQKFQDRVNLTRDTSASTVFMELINLRFEDTAIYYCIRETKFDPWGQGTLVTVSS
VL: EIVLTQSPLSLPVTLGQPASISCRSSQDLVYRDGITYLNWFQQRPGQSPRRLIYKVSNRDSGVPDRFSGSGSGTDFTLRISRVEAEDIGVYYCMQGTHWPITFGQGTRLEIKR
notes: heavy chain of Fab 12E1 (human VH, human IgG1 CH1) as left after TEV cleavage; light chain of Fab 12E1; Fab cloned from a human monoclonal antibody of a Bexsero vaccinee; also called anti-NHBA human Fab 12E1; source: Expi293 cells, transient transfection, purified from supernatant (StrepTrap HP, TEV cleavage, Superdex 200); not shown: double Strep-tag II, C-terminal, cleaved
The Kd is a measure of binding affinity in units of concentration. The low end stands for tighter binding, the high end for weaker binding. A word on the koff: it is the rate constant with which the complex falls apart. The low end stands for slow dissociation, the high end for fast dissociation. The term kon denotes the rate constant with which the complex forms. B1 returned a Kd of 6.2 nM, a koff of 0.0003 s⁻¹ and a kon of 49000 M⁻¹ s⁻¹.
